Test results from publication PMC2949506.

Tests used:
[1] = target: HIV-1 Vif (HXB2) L145A (HIV-1 (HXB2)) (UniProt P69723); assay: pull-down
[2] = target: Elongin BC complex (Homo sapiens) (UniProt Q15370); assay: ITC; conditions: cited from earlier work
[3] = target: Elongin BC complex (human Elongin B with Elongin C residues 17-122) (human) (UniProt Q15370); assay: HDX-MS

Substance | Kd [2] [nM] | Kd [3] [nM] | further results
Elongin BC complex (human Elongin B with Elongin C residues 17-122) (from UniProt Q15370 1-118) | – | – | fold reduction of binding versus wt Vif [1]: 3 fold
Vif 139-192 (from UniProt P69722) | 0.4 | – | –
Full length HIV-1 Vif (HXB2) (from UniProt P69723) (natural protein) | – | 1900 | stoichiometry N [3]: 1
Vif 130-180 (from UniProt P69722) | 1190 | – | –
HIV-1 Vif (HXB2) L145A (from UniProt P69723) (natural protein) | – | 3900 | –
